# Changes are numbered by the printed parent chain.
# T1: scleraxis (Scx) (UniProt Q6P6L3 1-207)
# T1 sequence: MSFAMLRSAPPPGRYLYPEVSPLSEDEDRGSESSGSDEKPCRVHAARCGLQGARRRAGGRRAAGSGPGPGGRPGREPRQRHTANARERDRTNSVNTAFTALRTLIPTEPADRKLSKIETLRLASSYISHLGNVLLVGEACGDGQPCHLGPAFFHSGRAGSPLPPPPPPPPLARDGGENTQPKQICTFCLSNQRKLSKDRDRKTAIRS
# B1: E box 2 (E2), αSMA promoter (dsDNA)
# DNA 1: GTTTATCCCCATAAGCAGCTGAACTGCCTCCTGTTT
# DNA 2: AAACAGGAGGCAGTTCAGCTGCTTATGGGGATAAAC
# B2: E box 2 mutant (mE2) (dsDNA)
# DNA 1: B1 DNA 1 with A17T, C19G
# DNA 2: B1 DNA 2 with G18C, T20A
# B3: E box 1 (E1), αSMA promoter (dsDNA)
# DNA 1: GTCTGGGCATTTGAGCAGTTGTTCTGAGGGCTCAGG
# DNA 2: CCTGAGCCCTCAGAACAACTGCTCAAATGCCCAGAC
# B4: E box 1 mutant (mE1) (dsDNA)
# DNA 1: B3 DNA 1 with A17C, T19A
# DNA 2: B3 DNA 2 with A18T, T20G
# Biological target: T1, scleraxis (Scx)
# Assay: EMSA; LightShift Chemiluminescent EMSA Kit (Pierce) per manufacturer, as in ref. 18; 500x cold competition; buffer, salt, pH and temperature not given
# Conditions: chain copies: 2; label: biotin; blunt
row,Binder,binding result
1,B1,binds
2,B2,no binding
3,B3,binds
4,B4,no binding

# From paper PMC4794909, “The transcription factor scleraxis is a critical regulator of cardiac fibroblast phenotype”
